For this test, the target named is CRBN of HEK293T cells, with PT-179 (human) (UniProt Q96SW2). Put plainly: cell-based or functional assay.

Where no end group is shown, it is not given here.

CRBN of HEK293T cells, with PT-179 (human), sequence (Q96SW2 whole entry): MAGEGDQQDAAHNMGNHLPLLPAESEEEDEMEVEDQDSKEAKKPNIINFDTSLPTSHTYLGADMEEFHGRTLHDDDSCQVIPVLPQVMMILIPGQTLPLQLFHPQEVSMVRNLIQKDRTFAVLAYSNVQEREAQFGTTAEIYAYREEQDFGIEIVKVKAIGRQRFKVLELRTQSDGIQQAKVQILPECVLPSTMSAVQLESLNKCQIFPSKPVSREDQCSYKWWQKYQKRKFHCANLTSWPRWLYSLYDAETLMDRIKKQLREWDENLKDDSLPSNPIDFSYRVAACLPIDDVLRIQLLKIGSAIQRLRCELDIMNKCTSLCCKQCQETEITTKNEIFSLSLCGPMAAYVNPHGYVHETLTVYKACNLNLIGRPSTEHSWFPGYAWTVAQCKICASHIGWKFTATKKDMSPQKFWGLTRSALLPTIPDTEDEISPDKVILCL

B1: SD36-tagged eGFP (degron fused to the N-terminus of eGFP) (designed binder, not shown: large carriers)
chain: FNVLMVHKRSHTGELLLFCPICGFTCRQKGNLLRHINLHTGEKLFKYHLYNYACQRRDAL-eGFP
modifications: cysteine pairing not given here
In the case of B1, the DC50 of PT-179-induced degradation of degron-tagged eGFP in HEK293T cells turned out to be 14 nM.

B2: SD40-eGFP (degron fused to the N-terminus of eGFP) (designed binder, not shown: large carriers)
chain: LLLFCPICGFTCRQKGNLLRHINLHTGEKLFKYHLY-eGFP
modifications: cysteine pairing not given here
In turn, B2 registered a DC50 of PT-179-induced degradation of degron-tagged eGFP in HEK293T cells of 5 nM.

For the origin of these results see patent US20250109177A1, “EVOLVED PROTEIN DEGRONS” (The Broad Institute, Inc., priority 2022, published 2025).
